Results taken from PMC8142631.
pIC50, pKd: −log10 of the molar value.

What was measured:
[1] = molecular target: endogenous EPCR expressed on EA.hy926 cells (human (endogenous in EA.hy926)) (UniProt Q9UNN8); assay: on-cell western
[2] = molecular target: Soluble wild-type EPCR (endothelial protein C receptor) (UniProt Q9UNN8)
[3] = molecular target: endogenous EPCR expressed on EA.hy926 cells (human (endogenous in EA.hy926)) (UniProt Q9UNN8); assay: binding to cells, read-out not stated
[4] = molecular target: Soluble wild-type EPCR (endothelial protein C receptor) (UniProt Q9UNN8); assay: ELISA
[5] = molecular target: E86A-sEPCR (soluble EPCR variant) (UniProt Q9UNN8); assay: ELISA

“recombinant CIDRα1.1 domain derived from FCR3 IT4VAR20 PfEMP1 (domain or fragment)” was tested. Which pKd [1] did it give?
The pKd was 8.10.

What about the CIDRα1.1 concentration at complete inhibition of APC binding to sEPCR [2] of the same substance?
Its CIDRα1.1 concentration at complete inhibition of APC binding to sEPCR is 50 nM.

What about the pIC50 [2] of the same substance?
Its pIC50 is 7.90.

And the CIDRα1.1 concentration at complete inhibition of APC binding to endothelial EPCR [3]?
The CIDRα1.1 concentration at complete inhibition of APC binding to endothelial EPCR was 100 nM.

And the pIC50 [3]?
Its pIC50 is 7.48.

What about the pKd [4] of the same substance?
The pKd was 8.37.

What about the pKd [5] of the same substance?
Its pKd is 8.36.
